Experiment [1] has as its target T1, rat EphB1 (rat, UniProt P09759 18-538, limits assumed).
T1 sequence (looked up): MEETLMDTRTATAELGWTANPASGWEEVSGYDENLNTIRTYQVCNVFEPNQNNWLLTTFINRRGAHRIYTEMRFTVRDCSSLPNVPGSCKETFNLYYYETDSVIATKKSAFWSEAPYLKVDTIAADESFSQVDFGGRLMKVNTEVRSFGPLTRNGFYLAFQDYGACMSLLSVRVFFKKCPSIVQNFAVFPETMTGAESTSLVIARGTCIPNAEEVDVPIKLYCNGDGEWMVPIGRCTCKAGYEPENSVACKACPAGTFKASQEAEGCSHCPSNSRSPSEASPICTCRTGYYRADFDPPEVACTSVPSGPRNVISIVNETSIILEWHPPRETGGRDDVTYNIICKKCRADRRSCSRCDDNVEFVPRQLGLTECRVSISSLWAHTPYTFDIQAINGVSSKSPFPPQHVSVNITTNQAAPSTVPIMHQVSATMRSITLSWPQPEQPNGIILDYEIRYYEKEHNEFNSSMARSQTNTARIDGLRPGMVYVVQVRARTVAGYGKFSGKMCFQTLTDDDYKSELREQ
Nature of the experiment: ELISA on coated receptor. For orientation: An ELISA detects its analyte on a solid surface through an enzyme-linked reagent.

The target of experiment [2] is T2, recombinant mouse EphA4-Fc fusion protein (mouse, UniProt Q03137 20-547, limits assumed).
T2 construct: also called mEphA4; not shown: Fc part, not described
Nature of the experiment: ELISA on coated receptor. As to the method: (§1) A 96-well plate was coated with recombinant mEphB1, -2, -3, -4, -6, mEphA4 and hEphB4 in PBS o/n at 4° C. (5 μg/mL; 100 μL/well). The next day, the antigen was discarded and the plate blocked with 3% BSA/PBS (300 μl/well) for 2 hrs at room temperature (RT). Blocking solution was discarded and anti-EphB4 Fabs were added to the wells at a concentration of 20 μg/mL in 1% BSA/PBS and incubated for 1 hr at RT. Fabs were discarded and the plate was washed 3× with PBS. Anti-human F(ab′)₂—HRP was added at a concentration recommended by the manufacturer in 1% BSA/PBS and incubated for 1 hr at RT. The plate was washed 3× with PBS and 100 μL/well chemifluorescent substrate was added. After development, fluorescence was measured in a fluorescence reader.

The target in experiment [3] is T3, recombinant mouse EphB2 (mouse, UniProt P54763 19-540, limits assumed).
T3 construct: also called mEphB2
T3 sequence (looked up): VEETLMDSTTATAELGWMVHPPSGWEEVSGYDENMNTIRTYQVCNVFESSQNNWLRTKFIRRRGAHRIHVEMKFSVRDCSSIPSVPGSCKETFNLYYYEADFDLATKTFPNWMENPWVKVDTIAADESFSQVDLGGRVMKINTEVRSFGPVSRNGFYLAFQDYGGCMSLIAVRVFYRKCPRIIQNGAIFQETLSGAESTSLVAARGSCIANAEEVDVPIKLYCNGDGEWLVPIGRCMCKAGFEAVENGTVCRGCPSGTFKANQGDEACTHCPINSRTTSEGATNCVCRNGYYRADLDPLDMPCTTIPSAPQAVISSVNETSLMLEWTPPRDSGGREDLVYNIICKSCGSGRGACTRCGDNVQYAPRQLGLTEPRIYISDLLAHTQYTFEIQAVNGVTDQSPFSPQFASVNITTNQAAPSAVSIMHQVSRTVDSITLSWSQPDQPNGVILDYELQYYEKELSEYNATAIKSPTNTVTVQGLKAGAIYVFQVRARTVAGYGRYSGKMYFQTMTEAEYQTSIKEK
The experiment is described as follows: ELISA on coated receptor. The method, then:
as §1

Experiment [4] concerns the target T2, recombinant mouse EphA4-Fc fusion …. The experiment is described as follows: ELISA, well P15 [part 2].
For experiment [5], the target named is T4, recombinant murine EphB4-Fc fusion protein (mouse, UniProt P54761 16-539).
T4 construct: extracellular domain; also called mEphB4; mu EphB4; not shown: Fc part, not described
T4 sequence (looked up): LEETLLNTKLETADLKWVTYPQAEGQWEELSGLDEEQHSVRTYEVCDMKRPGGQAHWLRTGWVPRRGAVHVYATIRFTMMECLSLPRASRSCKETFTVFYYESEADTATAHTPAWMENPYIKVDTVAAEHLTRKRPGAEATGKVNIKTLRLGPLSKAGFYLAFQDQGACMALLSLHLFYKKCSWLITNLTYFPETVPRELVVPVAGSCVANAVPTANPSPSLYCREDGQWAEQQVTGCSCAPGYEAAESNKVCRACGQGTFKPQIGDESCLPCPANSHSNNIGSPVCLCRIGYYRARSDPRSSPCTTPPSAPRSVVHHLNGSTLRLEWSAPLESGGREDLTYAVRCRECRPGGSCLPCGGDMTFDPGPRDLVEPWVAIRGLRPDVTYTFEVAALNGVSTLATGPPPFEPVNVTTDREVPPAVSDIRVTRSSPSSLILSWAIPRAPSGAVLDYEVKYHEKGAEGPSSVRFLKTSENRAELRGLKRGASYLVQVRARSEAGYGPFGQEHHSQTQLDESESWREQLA
The experiment is described as follows: SET (MSD), solution equilibrium titration; n = 1. The method, then: Two independent measurements were performed on human and murine EphB4-Fc.

In experiment [6] the target is T1, rat EphB1. The experiment is described as follows: ELISA, well L15 [part 2].

We go through 3 molecules from US20090137002A1 (published 2009).

Usually Kd stands for the constant that tells how readily two partners part at equilibrium.

T2 sequence (Q03137 20-547 limits assumed): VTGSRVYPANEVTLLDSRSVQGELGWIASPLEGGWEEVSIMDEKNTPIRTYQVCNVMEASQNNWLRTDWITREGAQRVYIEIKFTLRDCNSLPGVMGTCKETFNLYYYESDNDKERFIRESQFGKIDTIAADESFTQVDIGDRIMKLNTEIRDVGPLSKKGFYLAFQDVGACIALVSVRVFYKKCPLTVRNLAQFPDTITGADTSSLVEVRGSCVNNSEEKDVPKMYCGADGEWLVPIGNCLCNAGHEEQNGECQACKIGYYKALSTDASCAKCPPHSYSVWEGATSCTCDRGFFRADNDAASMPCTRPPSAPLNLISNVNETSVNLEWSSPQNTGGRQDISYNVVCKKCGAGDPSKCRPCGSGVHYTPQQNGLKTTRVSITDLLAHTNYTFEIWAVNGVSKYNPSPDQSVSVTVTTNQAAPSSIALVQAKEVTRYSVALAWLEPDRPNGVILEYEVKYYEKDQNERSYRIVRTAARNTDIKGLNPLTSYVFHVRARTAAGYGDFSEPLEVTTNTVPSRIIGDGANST

B1: MOR03639 Fab (Fab, V domains shown)
VH: QVQLVESGGGLVQPGGSLRLSCAASGFTFSNYYLHWVRQAPGKGLEWVSGISYSGSSTYYADSVKGRFTISRDNSKNTLYLQMNSLRAEDTAVYYCARFYQRRQIPHGYDVWGQGTLVTVSS
VL: DIELTQPPSVSVAPGQTARISCSGDNIGDYYVHWYQQKPGQAPVLVIYRDSNRPSGIPERFSGSNSGNTATLTISGTQAEDEADYYCGSYDMPFGGTVFGGGTKLTVLG
notes: Monomeric HuCAL Fab (VH3, lambda3), purified, MH-tagged
With B1, the binding result in experiment [1], in experiment [2] and in experiment [3] was “no binding (tested: 20 µg/mL)” throughout.

B2: MOR03641 Fab (Fab, V domains shown)
VH: QVQLVQSGAEVKKPGSSVKVSCKASGGTFSTYAISWVRQAPGQGLEWMGRIIPIFGTANYAQKFQGRVTITADESTSTAYMELSSLRSEDTAVYYCARSSYTILTTYYNYNAMDNWGQGTLVTVSS
VL: DIQMTQSPSSLSASVGDRVTITCRASQNINNFLNWYQQKPGKAPKLLIYGSSILQSGVPSRFSGSGSGTDFTLTISSLQPEDFAVYYCHQVSDTSDTFGQGTKVEIKR
notes: Monomeric HuCAL Fab (VH1A, kappa1), purified, MH-tagged; also called 3541 [sic]
As for B2, the binding result in experiment [1], in experiment [2] and in experiment [3] was “no binding (tested: 20 µg/mL)” in each case.

B3: MOR03640 Fab (Fab, V domains shown)
VH: QVQLVESGGGLVQPGGSLRLSCAASGFTFNNSWMSWVRQAPGKGLEWVSNITSSSSMTHYADSVKGRFTISRDNSKNTLYLQMNSLRAEDTAVYYCARKGMSFYNNKYAKSMFDLWGQGTLVTVSS
VL: DIELTQPPSVSVAPGQTARISCSGDNLGKKYVHWYQQKPGQAPVLVIYYDSKRPSGIPERFSGSNSGNTATLTISGTQAEDEADYYCSAWTTTMMHIVFGGGTKLTVLG
notes: Monomeric HuCAL Fab, purified, MH-tagged
Take B3: the binding result in experiment [4] and in experiment [6] was “no binding” each time. Also, the Kd in experiment [5] amounted to 6.63 nM.
